In patent publication US20140031234A1 (published 2014):

Molecular target: the molecule itself
Experiment: Sephacryl S100 gel filtration; self-association

B1: Strep-tagged Δ513 of NPR1 (other)
chain: AVLDQIMNCEDLTQLACGEDDTAEKRLQKKQRYMEIQETLKKAFSEDNLELGNSSLTDSTSSTSKSTGGKRSNRKLSHRRR
notes: E. coli-produced; used in S100 gel filtration; not shown: N-terminal Strep-Tag (and any vector linker)
B1: binds.
